Assay results taken from patent US11419948B2, “Functionalized microgels with fibrin binding elements” (Georgia Tech Research Corporation, priority 2013, dated 2022).

Experiments:
[1] = tested on: traumatic injury; test: Hemostasis in rodents following traumatic injury; type: in vivo; details: 100 mg/kg intravenously
[2] = target: T1, fibrinogen (Homo sapiens, UniProt P02671+P02675+P02679); test: ELISAs of H6 binding to fibrinogen in various states of unfolding
T1 sequence (P02671 20-629 limits assumed): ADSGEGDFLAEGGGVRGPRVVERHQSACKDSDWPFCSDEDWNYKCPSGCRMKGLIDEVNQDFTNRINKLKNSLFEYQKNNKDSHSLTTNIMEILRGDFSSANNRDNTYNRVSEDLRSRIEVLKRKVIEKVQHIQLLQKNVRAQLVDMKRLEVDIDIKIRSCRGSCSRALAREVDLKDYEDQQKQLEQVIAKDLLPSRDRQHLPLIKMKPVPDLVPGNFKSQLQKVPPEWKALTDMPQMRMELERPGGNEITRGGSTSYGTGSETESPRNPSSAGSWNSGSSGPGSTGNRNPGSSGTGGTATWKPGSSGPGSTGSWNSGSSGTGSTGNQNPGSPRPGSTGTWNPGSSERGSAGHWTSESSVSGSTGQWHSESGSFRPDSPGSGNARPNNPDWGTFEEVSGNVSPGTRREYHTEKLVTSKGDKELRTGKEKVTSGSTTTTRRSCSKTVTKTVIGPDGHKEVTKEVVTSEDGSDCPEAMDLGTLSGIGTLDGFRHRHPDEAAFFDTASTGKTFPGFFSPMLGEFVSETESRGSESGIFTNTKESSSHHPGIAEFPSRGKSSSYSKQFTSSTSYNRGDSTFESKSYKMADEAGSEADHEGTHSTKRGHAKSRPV
T1 sequence (P02675 31-491): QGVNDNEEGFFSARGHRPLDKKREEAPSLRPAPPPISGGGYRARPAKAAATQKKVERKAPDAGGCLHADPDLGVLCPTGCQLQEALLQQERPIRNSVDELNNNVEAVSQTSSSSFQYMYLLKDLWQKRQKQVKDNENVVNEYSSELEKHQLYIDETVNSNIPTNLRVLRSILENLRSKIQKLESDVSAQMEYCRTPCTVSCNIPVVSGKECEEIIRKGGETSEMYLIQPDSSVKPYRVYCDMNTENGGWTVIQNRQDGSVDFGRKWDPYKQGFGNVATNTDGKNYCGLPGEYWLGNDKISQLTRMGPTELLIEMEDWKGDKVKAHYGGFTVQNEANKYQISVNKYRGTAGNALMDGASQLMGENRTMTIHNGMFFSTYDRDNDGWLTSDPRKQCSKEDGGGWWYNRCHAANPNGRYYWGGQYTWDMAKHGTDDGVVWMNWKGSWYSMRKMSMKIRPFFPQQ
T1 sequence (P02679 27-453): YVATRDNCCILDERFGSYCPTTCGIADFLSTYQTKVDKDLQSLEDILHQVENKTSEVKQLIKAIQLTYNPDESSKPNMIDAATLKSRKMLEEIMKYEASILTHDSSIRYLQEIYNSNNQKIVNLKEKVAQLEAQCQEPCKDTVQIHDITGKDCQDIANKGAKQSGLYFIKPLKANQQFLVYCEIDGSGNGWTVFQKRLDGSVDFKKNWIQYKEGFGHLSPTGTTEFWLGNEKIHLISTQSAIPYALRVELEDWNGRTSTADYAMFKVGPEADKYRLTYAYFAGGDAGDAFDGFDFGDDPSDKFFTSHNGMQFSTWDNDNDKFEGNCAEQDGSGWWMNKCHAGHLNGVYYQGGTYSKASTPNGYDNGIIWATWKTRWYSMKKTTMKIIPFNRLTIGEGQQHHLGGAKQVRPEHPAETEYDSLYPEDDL
Description: Characterization of H6 binding to fibrin was determined through a series of experiments designed to test the ability of H6 to bind fibrinogen in various states of unfolding.
In the first experiment ELISAs, as described previously, were performed comparing the ability of H6 to bind fibrinogen that was either passively adsorbed to a glass surface or immobilized to a glass surface, the assumption being that fibrinogen exists in a more unfolded state when adsorbed in comparison to when its immobilized on a surface.
This experiment was repeated comparing the ability of H6 to bind fibrinogen passively adsorbed to a plastic surface after having been heat-denatured, or not, with the assumption being that heat-denatured fibrinogen exists in a more unfolded state than that of fibrinogen that was not heat-denatured.
Finally, this experiment was repeated to compare the ability of H6 to bind fibrinogen that was passively adsorbed after no treatment, heat denaturing, heat denaturing plus reduction of sulfide bonds, or just reduction of sulfide bonds. The assumption is that reduction of sulfide bonds within a fibrinogen molecule in addition to heat denaturing result in an even greater extent of molecular unfolding than compared to heat denaturing alone.

[3] = target: T1, fibrinogen; test: SPR on immobilized fibrinogen surface; type: binding
Description: (§1) Based on previous SPR protocols developed in the lab^4, a thin fibrin layer was immobilized on the surface of a gold SPR chip via layer-by-layer deposition of fibrinogen-thrombin-fibrinogen^3. SdFvs were flowed across the fibrin surface and the binding interactions were evaluated and recorded. Additionally, antibody fragment binding interactions with a surface of immobilized fibrinogen was used to investigate the specificity to fibrin. All SPR data was examined and analyzed with Scrubber 2 and Clamp XP (Center for Biomolecular Interactions Analysis, University of Utah). Data simulation curves were generated based on a Langmuir 1:1 binding model assuming only a single ligand-analyte interaction.

[4] = tested on: fibrin E Regions; test: ELISA against adsorbed fibrin E Regions; type: binding; details: E Region dilutions
Description: This was determined through ELISAs against plates coated with adsorbed fibrin D-Dimers or E Regions.
ELISA set-up and analysis was identical to that performed for the plasma-binding ELISA, the main exception being a substitution of human plasma dilutions for D-Dimer or E Region dilutions adsorbed to the 96-well plates. Both D-Dimer and […]

[5] = target: BSA (Bos taurus, UniProt P02769); test: SPR on BSA surface; type: binding
Text: FIG. 2A is an SPR sensorgram of thin fibrin layer immobilized on surface the SPR channel via NHS/EDC activated carboxylic acid terminated SAM with subsequent injections of fibrinogen (1), ethanolamine quencher (2), HEPES buffer+Tween 20 (3), thrombin (4), and fibrinogen+anti-thrombin+heparin (5). FIGS. 2B-2K are representative SPR sensorgrams of scFvs on fibrin layer (FIGS. 2B-2F) or BSA surface (FIGS. 2G-2K) for clones A2 (FIGS. 2B and 2G), A6 (FIGS. 2C and 2H), H6 (FIGS. 2D and 2I), B3 (FIGS. 2E and 2J), or non-specific control (FIGS. 2F and 2K). Experimental data is shown in black and fits are shown in dotted line.
as §1

BSA, sequence (P02769 25-607): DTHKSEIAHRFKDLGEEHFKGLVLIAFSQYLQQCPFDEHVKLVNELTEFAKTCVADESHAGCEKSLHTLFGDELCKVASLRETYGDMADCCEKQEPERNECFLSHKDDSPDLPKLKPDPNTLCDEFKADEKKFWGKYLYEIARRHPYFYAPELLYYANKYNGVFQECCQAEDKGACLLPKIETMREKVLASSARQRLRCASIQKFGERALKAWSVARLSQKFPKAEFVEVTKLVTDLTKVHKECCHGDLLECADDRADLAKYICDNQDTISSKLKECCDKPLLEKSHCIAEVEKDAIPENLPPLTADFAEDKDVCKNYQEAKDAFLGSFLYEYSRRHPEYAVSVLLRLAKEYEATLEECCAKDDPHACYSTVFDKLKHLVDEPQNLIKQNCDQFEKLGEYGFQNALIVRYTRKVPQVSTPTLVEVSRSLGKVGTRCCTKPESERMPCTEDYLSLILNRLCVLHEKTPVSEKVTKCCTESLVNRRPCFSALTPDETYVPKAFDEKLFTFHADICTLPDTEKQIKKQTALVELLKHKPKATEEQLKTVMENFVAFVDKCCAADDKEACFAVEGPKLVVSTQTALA

B1: PLPs: ultra-low crosslinked pNIPAm-AAc microgels conjugated to fibrin-specific sdFv H6 (conjugate)
VH: QVQLLESGGGLVQPGGSLRLSCAASGDRFTHNDMGWVRQAPGKGLEWVSTIPTTDGSTYYADSVKGRFTISRDNSKSTLYLQMNSLRAEDTAVYYCATGYMWKAPAYVKYWGQGTLVTVSSAAAEQKLISEEDLNSAAHYTDIG
augmentation of hemostasis [1]: effective to augment hemostasis

B2: H6: fibrin-specific human sdFv clone from phage biopanning, SEQ ID NO: 1 (protein)
VHH: QVQLLESGGGLVQPGGSLRLSCAASGDRFTHNDMGWVRQAPGKGLEWVSTIPTTDGSTYYADSVKGRFTISRDNSKSTLYLQMNSLRAEDTAVYYCATGYMWKAPAYVKYWGQGTLVTVSSAAAEQKLISEEDLNSAAHYTDIG
binding to fibrinogen on glass surface ([2]; adsorbed and immobilized fibrinogen): weak
binding to immobilized versus adsorbed fibrinogen ([2]; glass surface): dose-dependent decrease in binding
binding to fibrinogen adsorbed to plastic surface ([2]; heat-denatured or not): weak binding
binding to fibrinogen versus degree of unfolding ([2]; no treatment, heat denaturing, reduction of sulfide bonds, or both): positively correlated to the degree of unfolding
binding to heat-denatured versus un-denatured fibrinogen ([2]; plastic surface): dose-dependent enhanced ability
binding to fibrinogen [3]: negligible binding
binding to E Region [4]: negligible binding
binding to BSA [5]: negligible binding
